Read-outs that look alike come from different tables or passages of the source.

The values that follow come from doi:10.1101/2022.08.03.502606.

One assay deals with CaMKII^F394BzF (human) (UniProt Q9UQM7).
The target of assay [1] is CaMKII^K42RD135N-AviTag (kinase-dead CaMKII, K42R and D135N double mutant, C-terminal AviTag) (human) (UniProt Q9UQM7). Nature of the assay: mass photometry.
For assay [2] the target is unchanged. Nature of the assay: mass photometry. The source holds these as a separate data set.
The target is the same in assay [3].

In general, stoichiometry N refers to the number of molecules, sites or subunits per partner or assembly. In the assay with CaMKII^F394BzF (human), “CaMKII^F394BzF (from UniProt Q9UQM7 6-478) (enzyme)” had a stoichiometry N of 12.

As for “CaMKII^K42RD135N-AviTag (kinase-dead CaMKII, K42R and D135N double mutant, C-terminal AviTag) (from UniProt Q9UQM7 6-478) (enzyme)”, the percent in the tetramer peak in assay [1] came to 12%. The stoichiometry N worked out at 4 in assay [1], 10 in assay [2] and 12 in assay [3].
